Values of other authors in PMC7448383.

Biological target: GST (Schistosoma japonicum) [GST: P08515]

GST, sequence (P08515 2-218): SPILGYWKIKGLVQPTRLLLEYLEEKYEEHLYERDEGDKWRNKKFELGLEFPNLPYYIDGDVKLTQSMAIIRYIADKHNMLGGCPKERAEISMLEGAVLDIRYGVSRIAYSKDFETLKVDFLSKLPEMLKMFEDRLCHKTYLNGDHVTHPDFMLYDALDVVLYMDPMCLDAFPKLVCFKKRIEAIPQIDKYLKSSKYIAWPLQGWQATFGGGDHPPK

GST (from UniProt P08515)
Kd: 340 nM
